In assay [1] the target is (His)10-p34(37–319) (Helicobacter pylori). As to the kind of experiment: SEC; Superose 6 10/300 GL, in the presence of 2 M urea.
Assay [2] has the same target. As to the kind of experiment: SEC; Superose 6 10/300 GL, 0.5 ml/min, in the presence of 10% glycerol; mass from the Kav of the most prominent peak against marker proteins.
Assay [3] shares this target. As to the kind of experiment: SEC; in the presence of 4 M urea; Superose 6 10/300 GL for (His)10-p34, Superose 12 10/300 GL (1.0 ml/min) for (His)10-p34ΔN/ΔC; mass against marker proteins.
Assay [4] has as its target (His)10-p34ΔN/ΔC (p34 residues 37–292 linked to a 10 histidine tag) (Helicobacter pylori). The assay is described as above.

Consider “(His)10-p34(37–319) (domain or fragment)”, for which the stoichiometry N in assay [1], in assay [2] and in assay [3] was 6 subunits in each case.
Turning to “(His)10-p34ΔN/ΔC (p34 residues 37–292 linked to a 10 histidine tag) (domain or fragment)”, in assay [4], the stoichiometry N was found to be 6 subunits.

Values taken from publication PMC2861713.
